# Reference: patent JP2014150761A (dated 2014)
# Assays:
# [1] = target: T1, human beta-NGF (R&D Systems) (human, UniProt P01138 122-241); assay: isothermal titration calorimetry in PBS: 44 μM human βNGF titrated into 1.5 μM Tanezumab, single site binding model
# T1 construct: It was unlabelled in the ITC, DLS and cell assays; also called ヒトβNGF; ヒトNGF
# [2] = target: T1, human beta-NGF (R&D Systems); assay: cell-based or functional assay
# [3] = target: T2, mouse beta-NGF (R&D Systems) (mouse, UniProt P01139 122-241); assay: cell-based or functional assay
# [4] = target: T1, human beta-NGF (R&D Systems); assay: competition ELISA: inhibition of biotin-human βNGF binding to immobilised human trkA (Example 3)
# [5] = target: T2, mouse beta-NGF (R&D Systems); assay: competition ELISA with biotin-mouse βNGF on immobilised trkA (Example 4)
# [6] = target: T1, human beta-NGF (R&D Systems); assay: screening by Examples 3 to 8 (NGF-trkA binding inhibition ELISA, cell assays)
# [7] = target: T1, human beta-NGF (R&D Systems); assay: papain Fab tested by Examples 3, 6 and 7
binder,measurement,setting,value
"Tanezumab (antibody, V domains shown) VH: QVQLQESGPGLVKPSETLSLTCTVSGFSLIGYDLNWIRQPPGKGLEWIGIIWGDGTTDYNSAVKSRVTISKDTSKNQFSLKLSSVTAADTAVYYCARGGYWYATSYYFDYWGQGTLVTVSS VL: DIQMTQSPSSLSASVGDRVTITCRASQSISNNLNWYQQKPGKAPKLLIYYTSRFHSGVPSRFSGSGSGTDFTFTISSLQPEDIATYYCQQEHTLPYTFGQGTKLEIKR",Kd,[1],20.4 nM
same,"IC50, neutralizing activity by the method of Example 6 (Ca2+ rise, HEK293 cells expressing human trkA)",[2],0.17 µg/mL
same,"IC50, neutralizing activity by the method of Example 6 (Ca2+ rise, HEK293 cells expressing human trkA)",[3],0.23 µg/mL
same,IC50,[4],0.41 µg/mL
"PEGylated 1-15(N52D)-Fab' (Fab, V domains shown, 40 kDa PEG (SUNBRIGHT GL2-400MA, maleimide) on the C-terminal Cys (EU C226; Cys 230 of SEQ ID NO 10)) VH: QVQLQQWGAGLLKPSETLSLTCAVYGGSFSGYYWSWVRQPPGKGLEWIGEIDHSGSTNNNPSLKSRVTISVGTSKNQFSLKLSSVTAADTAVYYCSRDGGPESGMGAFDIWGQGTMVTVSS VL: not shown","IC50, neutralizing activity by the method of Example 6 (Ca2+ rise, HEK293 cells expressing human trkA)",[3],0.069 µg/mL
same,fold stronger neutralizing activity than Tanezumab (method of Example 6),[3],~3.3 fold
"1-15 antibody (chimeric antibody) (antibody, V domains shown, also called 1−15と命名した抗体(キメラ抗体)) VH: QVQLQQWGAGLLKPSETLSLTCAVYGGSFSGYYWSWVRQPPGKGLEWIGEINHSGSTNNNPSLKSRVTISVGTSKNQFSLKLSSVTAADTAVYYCSRDGGPESGMGAFDIWGQGTMVTVSS VL: not shown",binding result,[5],binds
same,binding result,[6],binds
"Fab fragment of the 1-15 antibody (papain digest) (Fab, V domains shown, also called 1-15 Fab; 1価の抗体フラグメント) VH: QVQLQQWGAGLLKPSETLSLTCAVYGGSFSGYYWSWVRQPPGKGLEWIGEINHSGSTNNNPSLKSRVTISVGTSKNQFSLKLSSVTAADTAVYYCSRDGGPESGMGAFDIWGQGTMVTVSS VL: not shown",binding result,[7],binds
"1-15(N52D-A)-Fab'-10kPEG (Fab, V domains shown, 10 kDa PEG (SUNBRIGHT GL2-100MA) bound by the procedure of Example 13 (hinge Cys)) VH: QVQLQQWGAGLLKPSETLSLTCAVYGGSFSGYYWSWVRQPPGKGLEWIGEIDHSGSTNNNPSLKSRVTISVGTSKNQFSLKLSSVTAADTAVYYCSRDGGPESGMGAFDIWGQGTMVTVSS VL: not shown","IC50, neutralizing activity by the method of Example 6 (final NGF concentration 50 ng/ml)",[2],0.028 µg/mL
"1-15(N52D-A)-Fab'-5kPEG (Fab, V domains shown, 5 kDa PEG (SUNBRIGHT GL2-50MA) bound by the procedure of Example 13 (hinge Cys)) VH: QVQLQQWGAGLLKPSETLSLTCAVYGGSFSGYYWSWVRQPPGKGLEWIGEIDHSGSTNNNPSLKSRVTISVGTSKNQFSLKLSSVTAADTAVYYCSRDGGPESGMGAFDIWGQGTMVTVSS VL: not shown","IC50, neutralizing activity by the method of Example 6 (final NGF concentration 50 ng/ml)",[2],0.03 µg/mL
